We go through two molecules from patent US20210340252A1 (WUXI BIOLOGICS IRELAND, published 2021).

One experiment deals with T1, CynoTIM-3.ECD.Fc (cynomolgus monkey, UniProt A0A2K5U3G7 22-195).
T1 construct: extracellular domain; also called Cynomolgus TIM-3, hFc tag; not shown: Fc tag
T1 sequence: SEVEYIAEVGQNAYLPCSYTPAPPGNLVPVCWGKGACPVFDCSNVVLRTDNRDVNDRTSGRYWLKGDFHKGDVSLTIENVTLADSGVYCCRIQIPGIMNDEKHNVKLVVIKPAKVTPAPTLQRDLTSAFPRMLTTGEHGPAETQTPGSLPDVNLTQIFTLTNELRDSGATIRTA
The experiment is described as follows: SPR Biacore 8K, cynoTIM-3.ECD.Fc immobilised on CM5 chip, antibody as analyte (avidity), 1:1 fit.

A further experiment deals with T2, hTIM-3.ECD.MBPHis (human, UniProt Q8TDQ0 22-202).
T2 construct: extracellular domain; Made in Expi293 cells; also called human TIM-3.ECD.MBPAVIHIS; not shown: C-terminal MBP / AVI / 6xHis tag
Briefly: SPR Biacore 8K, antibody captured on anti-human IgG Fc CM5 chip, hTIM-3.ECD.MBPHis as analyte, 1:1 fit. In general terms: In SPR one partner is held on a chip, and binding of the other changes the refractive index at the surface.

The target of experiment [1] is human TIM-3 protein (coated on ELISA plates) (human, UniProt Q8TDQ0 22-200, limits assumed). The experiment is described as follows: competition ELISA on plate-coated human TIM-3 against biotinylated WBP340-BMK8, detection with SA-HRP. (In general: An ELISA detects its analyte on a solid surface through an enzyme-linked reagent.)
A further experiment deals with T3, Human TIM-4, His tag (human, UniProt Q96H15 25-315, limits assumed).
T3 construct: Bought protein
T3 sequence (looked up): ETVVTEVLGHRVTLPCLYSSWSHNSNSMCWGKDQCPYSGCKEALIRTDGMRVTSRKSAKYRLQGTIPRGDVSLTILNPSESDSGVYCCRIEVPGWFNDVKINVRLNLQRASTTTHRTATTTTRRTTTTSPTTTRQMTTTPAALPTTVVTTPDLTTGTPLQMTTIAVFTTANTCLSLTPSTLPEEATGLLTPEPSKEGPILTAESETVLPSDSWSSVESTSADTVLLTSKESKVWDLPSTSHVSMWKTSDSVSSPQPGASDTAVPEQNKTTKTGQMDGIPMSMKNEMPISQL
Briefly: ELISA, plates coated with human TIM-4.

Experiment [2] addresses T4, human TIM-3, full length, on cells (human, UniProt Q8TDQ0 22-301).
T4 construct: whole, on cells; also called hTIM-3; cell surface human TIM-3
The experiment is described as follows: FACS binding titration on human TIM-3 transfected cells after incubation of the antibody in human serum.

Another experiment has as its target T5, mFc-tagged human TIM-3 (human, UniProt Q8TDQ0 22-202, limits assumed).
T5 construct: the assay text only says mFc-tagged human TIM-3; also called hTIM-3.ECD.mFc; not shown: mouse Fc tag at the C-terminus
The experiment is described as follows: competition, flow cytometry: antibody pre-mixed with mFc-tagged human TIM-3, binding of TIM-3 to PtdSer on apoptotic Jurkat cells, PE anti-mouse IgG Fc; blockade of TIM-3 binding to PtdSer on apoptotic Jurkat cells.

In experiment [3] the target is T4, human TIM-3, full length, on cells. The experiment is described as follows: flow cytometry on hTIM-3-expressing transfectant cells, PE goat anti-human IgG-Fc. A general note: A flow cytometer gives signals particle by particle.
Experiment [4] has the same target. Briefly: FACS on PHA-activated human CD4+ T cells (natural TIM-3), detection with PE goat anti-human IgG Fc, MFI.
The next experiment has as its target T6, Human TIM-1, His tag (human, UniProt Q96D42 21-293, limits assumed).
T6 construct: Bought protein
T6 sequence (looked up): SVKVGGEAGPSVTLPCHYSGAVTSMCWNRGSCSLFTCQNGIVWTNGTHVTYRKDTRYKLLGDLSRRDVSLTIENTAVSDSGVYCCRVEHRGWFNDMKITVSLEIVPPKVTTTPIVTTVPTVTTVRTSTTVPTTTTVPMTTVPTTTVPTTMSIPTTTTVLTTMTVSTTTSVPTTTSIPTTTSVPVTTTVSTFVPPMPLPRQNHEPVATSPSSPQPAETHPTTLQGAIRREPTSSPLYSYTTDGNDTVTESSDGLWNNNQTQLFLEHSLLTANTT
The experiment is described as follows: ELISA, plates coated with human TIM-1.

In experiment [5] the target is T7, cynomolgus monkey TIM-3, full length, on transfected cells (cynomolgus monkey, UniProt A0A2K5U3G7 22-294).
T7 construct: whole, on cells; cynoTIM-3-expressing transfectant cells; also called cynoTIM-3
T7 sequence: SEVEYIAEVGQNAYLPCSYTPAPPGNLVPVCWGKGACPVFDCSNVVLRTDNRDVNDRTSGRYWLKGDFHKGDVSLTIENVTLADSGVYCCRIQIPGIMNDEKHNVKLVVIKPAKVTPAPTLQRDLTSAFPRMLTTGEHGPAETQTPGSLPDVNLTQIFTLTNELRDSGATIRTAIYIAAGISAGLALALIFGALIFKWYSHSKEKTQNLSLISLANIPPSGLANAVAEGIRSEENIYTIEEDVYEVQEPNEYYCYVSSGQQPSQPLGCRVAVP
Briefly: flow cytometry on cynoTIM-3-expressing transfectant cells, PE goat anti-human IgG-Fc.

Changes are numbered by the printed parent chain. Names may count otherwise.

B1: W3405-2.61.21-uAb-hIgG4.SPK (V87E) (antibody, V domains shown)
VH: EVQLLEAGGGPVQPGGSLRLSCAAAGFTFSNYAMSWVRQAPGKGLEWVSSISDNGGTAYHADSVQGRFTISRDNSKSTLYLQMNSLRAEDTAVYYCAKDFGDSPGYWGQGTLVTVSS
VL: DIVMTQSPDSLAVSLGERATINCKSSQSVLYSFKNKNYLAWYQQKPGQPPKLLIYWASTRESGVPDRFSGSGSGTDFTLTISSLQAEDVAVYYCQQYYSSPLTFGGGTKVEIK
notes: Human IgG4 (S228P) heavy constant region and kappa light chain; also called mutant_3
For orientation: koff means the first-order rate constant of dissociation. In general, kon refers to the rate constant with which the complex forms. As for B1, in the experiment with CynoTIM-3.ECD.Fc, the Kd was 0.00452 nM, the koff worked out at 7.49e-06 s⁻¹ and the kon was 1.66e+06 M⁻¹ s⁻¹. In the experiment with hTIM-3.ECD.MBPHis, the Kd was 0.153 nM, the koff amounted to 3.18e-05 s⁻¹ and the kon was 208000 M⁻¹ s⁻¹.

B2: W3405-2.61.21-uAb-p1-hIgG4.SPK (antibody, V domains shown)
VH: B1 VH with N54Q
VL: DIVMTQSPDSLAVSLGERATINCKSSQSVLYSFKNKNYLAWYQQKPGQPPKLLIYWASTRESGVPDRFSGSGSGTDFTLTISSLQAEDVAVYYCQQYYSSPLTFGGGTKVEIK
notes: Fully human antibody; Constant region of human IgG4 (S228P) heavy chain and human kappa light chain; also called W3405 lead antibody; p1 variant (N→Q)
In general, EC50 (read off the curve) refers to the concentration at which the effect is half-maximal. In general, IC50 refers to the concentration at which inhibition is half-maximal. By EC50 is commonly meant the midpoint of the concentration-response curve. As to B2, the “IC50 (read off the curve)” value in [1] is ~0.8 nM. Further, the binding result in the experiment with Human TIM-4, His tag is listed as “no binding”; with Human TIM-1, His tag, “no binding”. For the same molecule, the “EC50 (read off the curve)” value in experiment [2] was ~0.4 nM. This molecule also returned an IC50 in the experiment with mFc-tagged human TIM-3 of 20 nM. For the same molecule, the values for the EC50 in experiment [3], in experiment [4] and in experiment [5] were 0.13 nM, 0.096 nM and 0.99 nM, respectively. Also, the figures for the Kd with CynoTIM-3.ECD.Fc and with hTIM-3.ECD.MBPHis were 0.006 nM and 0.138 nM, respectively. Also, the koff is 1.73e-05 s⁻¹ with CynoTIM-3.ECD.Fc and 3.2e-05 s⁻¹ in the experiment with hTIM-3.ECD.MBPHis. Moreover, the results for the kon with CynoTIM-3.ECD.Fc and with hTIM-3.ECD.MBPHis were 2.89e+06 M⁻¹ s⁻¹ and 232000 M⁻¹ s⁻¹, respectively.
